Data reported in patent publication US20220040297A1 (Chugai, published 2022).

B1: GLS3000 S27eA (antibody, name in Kabat numbering, V domains shown)
VH: QVQLVESGGGVVQPGRSLRLSCAASGFTFSNAWMHWVRQAPGKGLEWVAQIKAKSNNYATYYAESVKGRFTISRDDSKNSLYLQMNSLKTEDTAVYYCRYVHYGAYYGVDAWGQGTTVTVSS
VL: DIVMTQSPLSLPVTPGEPASISCRSSQSLVHANRNTYLHWYQQKPGQAPRLLIYKVSNRFSGVPDRFSGSGSGTDFTLKISRVEAEDVGVYYCGQGTQVPYTFGQGTKLEIK
notes: one-arm format as m2
B2: GLS3000 F55V (antibody, name in Kabat numbering, V domains shown)
VH: QVQLVESGGGVVQPGRSLRLSCAASGFTFSNAWMHWVRQAPGKGLEWVAQIKAKSNNYATYYAESVKGRFTISRDDSKNSLYLQMNSLKTEDTAVYYCRYVHYGAYYGVDAWGQGTTVTVSS
VL: DIVMTQSPLSLPVTPGEPASISCRSSQSLVHSNRNTYLHWYQQKPGQAPRLLIYKVSNRVSGVPDRFSGSGSGTDFTLKISRVEAEDVGVYYCGQGTQVPYTFGQGTKLEIK
notes: one-arm format as m2
B3: GLS3000 F55N (antibody, name in Kabat numbering, V domains shown)
VH: QVQLVESGGGVVQPGRSLRLSCAASGFTFSNAWMHWVRQAPGKGLEWVAQIKAKSNNYATYYAESVKGRFTISRDDSKNSLYLQMNSLKTEDTAVYYCRYVHYGAYYGVDAWGQGTTVTVSS
VL: DIVMTQSPLSLPVTPGEPASISCRSSQSLVHSNRNTYLHWYQQKPGQAPRLLIYKVSNRNSGVPDRFSGSGSGTDFTLKISRVEAEDVGVYYCGQGTQVPYTFGQGTKLEIK
notes: one-arm format as m2
B4: GLS3000 F55G (antibody, name in Kabat numbering, V domains shown)
VH: QVQLVESGGGVVQPGRSLRLSCAASGFTFSNAWMHWVRQAPGKGLEWVAQIKAKSNNYATYYAESVKGRFTISRDDSKNSLYLQMNSLKTEDTAVYYCRYVHYGAYYGVDAWGQGTTVTVSS
VL: DIVMTQSPLSLPVTPGEPASISCRSSQSLVHSNRNTYLHWYQQKPGQAPRLLIYKVSNRGSGVPDRFSGSGSGTDFTLKISRVEAEDVGVYYCGQGTQVPYTFGQGTKLEIK
notes: one-arm format as m2
B5: GLS3000 G89D (antibody, name in Kabat numbering, V domains shown)
VH: QVQLVESGGGVVQPGRSLRLSCAASGFTFSNAWMHWVRQAPGKGLEWVAQIKAKSNNYATYYAESVKGRFTISRDDSKNSLYLQMNSLKTEDTAVYYCRYVHYGAYYGVDAWGQGTTVTVSS
VL: DIVMTQSPLSLPVTPGEPASISCRSSQSLVHSNRNTYLHWYQQKPGQAPRLLIYKVSNRFSGVPDRFSGSGSGTDFTLKISRVEAEDVGVYYCDQGTQVPYTFGQGTKLEIK
notes: one-arm format as m2
B6: GLS3000 F55L (antibody, name in Kabat numbering, V domains shown)
VH: QVQLVESGGGVVQPGRSLRLSCAASGFTFSNAWMHWVRQAPGKGLEWVAQIKAKSNNYATYYAESVKGRFTISRDDSKNSLYLQMNSLKTEDTAVYYCRYVHYGAYYGVDAWGQGTTVTVSS
VL: DIVMTQSPLSLPVTPGEPASISCRSSQSLVHSNRNTYLHWYQQKPGQAPRLLIYKVSNRLSGVPDRFSGSGSGTDFTLKISRVEAEDVGVYYCGQGTQVPYTFGQGTKLEIK
notes: one-arm format as m2
B7: GLS3000 F55H (antibody, name in Kabat numbering, V domains shown)
VH: QVQLVESGGGVVQPGRSLRLSCAASGFTFSNAWMHWVRQAPGKGLEWVAQIKAKSNNYATYYAESVKGRFTISRDDSKNSLYLQMNSLKTEDTAVYYCRYVHYGAYYGVDAWGQGTTVTVSS
VL: DIVMTQSPLSLPVTPGEPASISCRSSQSLVHSNRNTYLHWYQQKPGQAPRLLIYKVSNRHSGVPDRFSGSGSGTDFTLKISRVEAEDVGVYYCGQGTQVPYTFGQGTKLEIK
notes: one-arm format as m2
B8: GLS3000 F55Y (antibody, name in Kabat numbering, V domains shown)
VH: QVQLVESGGGVVQPGRSLRLSCAASGFTFSNAWMHWVRQAPGKGLEWVAQIKAKSNNYATYYAESVKGRFTISRDDSKNSLYLQMNSLKTEDTAVYYCRYVHYGAYYGVDAWGQGTTVTVSS
VL: DIVMTQSPLSLPVTPGEPASISCRSSQSLVHSNRNTYLHWYQQKPGQAPRLLIYKVSNRYSGVPDRFSGSGSGTDFTLKISRVEAEDVGVYYCGQGTQVPYTFGQGTKLEIK
notes: one-arm format as m2
B9: GLS3000 F55S (antibody, name in Kabat numbering, V domains shown)
VH: QVQLVESGGGVVQPGRSLRLSCAASGFTFSNAWMHWVRQAPGKGLEWVAQIKAKSNNYATYYAESVKGRFTISRDDSKNSLYLQMNSLKTEDTAVYYCRYVHYGAYYGVDAWGQGTTVTVSS
VL: DIVMTQSPLSLPVTPGEPASISCRSSQSLVHSNRNTYLHWYQQKPGQAPRLLIYKVSNRSSGVPDRFSGSGSGTDFTLKISRVEAEDVGVYYCGQGTQVPYTFGQGTKLEIK
notes: one-arm format as m2
B10: GLS3000 F55T (antibody, name in Kabat numbering, V domains shown)
VH: QVQLVESGGGVVQPGRSLRLSCAASGFTFSNAWMHWVRQAPGKGLEWVAQIKAKSNNYATYYAESVKGRFTISRDDSKNSLYLQMNSLKTEDTAVYYCRYVHYGAYYGVDAWGQGTTVTVSS
VL: DIVMTQSPLSLPVTPGEPASISCRSSQSLVHSNRNTYLHWYQQKPGQAPRLLIYKVSNRTSGVPDRFSGSGSGTDFTLKISRVEAEDVGVYYCGQGTQVPYTFGQGTKLEIK
notes: one-arm format as m2
B11: GLS3000 F55E (antibody, name in Kabat numbering, V domains shown)
VH: QVQLVESGGGVVQPGRSLRLSCAASGFTFSNAWMHWVRQAPGKGLEWVAQIKAKSNNYATYYAESVKGRFTISRDDSKNSLYLQMNSLKTEDTAVYYCRYVHYGAYYGVDAWGQGTTVTVSS
VL: DIVMTQSPLSLPVTPGEPASISCRSSQSLVHSNRNTYLHWYQQKPGQAPRLLIYKVSNRESGVPDRFSGSGSGTDFTLKISRVEAEDVGVYYCGQGTQVPYTFGQGTKLEIK
notes: one-arm format as m2
B12: GLS3000 F55P (antibody, name in Kabat numbering, V domains shown)
VH: QVQLVESGGGVVQPGRSLRLSCAASGFTFSNAWMHWVRQAPGKGLEWVAQIKAKSNNYATYYAESVKGRFTISRDDSKNSLYLQMNSLKTEDTAVYYCRYVHYGAYYGVDAWGQGTTVTVSS
VL: DIVMTQSPLSLPVTPGEPASISCRSSQSLVHSNRNTYLHWYQQKPGQAPRLLIYKVSNRPSGVPDRFSGSGSGTDFTLKISRVEAEDVGVYYCGQGTQVPYTFGQGTKLEIK
notes: one-arm format as m2
B13: GLS3000 F55I (antibody, name in Kabat numbering, V domains shown)
VH: QVQLVESGGGVVQPGRSLRLSCAASGFTFSNAWMHWVRQAPGKGLEWVAQIKAKSNNYATYYAESVKGRFTISRDDSKNSLYLQMNSLKTEDTAVYYCRYVHYGAYYGVDAWGQGTTVTVSS
VL: DIVMTQSPLSLPVTPGEPASISCRSSQSLVHSNRNTYLHWYQQKPGQAPRLLIYKVSNRISGVPDRFSGSGSGTDFTLKISRVEAEDVGVYYCGQGTQVPYTFGQGTKLEIK
notes: one-arm format as m2
B14: GLS3000 F55W (antibody, name in Kabat numbering, V domains shown)
VH: QVQLVESGGGVVQPGRSLRLSCAASGFTFSNAWMHWVRQAPGKGLEWVAQIKAKSNNYATYYAESVKGRFTISRDDSKNSLYLQMNSLKTEDTAVYYCRYVHYGAYYGVDAWGQGTTVTVSS
VL: DIVMTQSPLSLPVTPGEPASISCRSSQSLVHSNRNTYLHWYQQKPGQAPRLLIYKVSNRWSGVPDRFSGSGSGTDFTLKISRVEAEDVGVYYCGQGTQVPYTFGQGTKLEIK
notes: one-arm format as m2
B15: GLS3000 G89A (antibody, name in Kabat numbering, V domains shown)
VH: QVQLVESGGGVVQPGRSLRLSCAASGFTFSNAWMHWVRQAPGKGLEWVAQIKAKSNNYATYYAESVKGRFTISRDDSKNSLYLQMNSLKTEDTAVYYCRYVHYGAYYGVDAWGQGTTVTVSS
VL: DIVMTQSPLSLPVTPGEPASISCRSSQSLVHSNRNTYLHWYQQKPGQAPRLLIYKVSNRFSGVPDRFSGSGSGTDFTLKISRVEAEDVGVYYCAQGTQVPYTFGQGTKLEIK
notes: one-arm format as m2
B16: GLS3000 F55Q (antibody, name in Kabat numbering, V domains shown)
VH: QVQLVESGGGVVQPGRSLRLSCAASGFTFSNAWMHWVRQAPGKGLEWVAQIKAKSNNYATYYAESVKGRFTISRDDSKNSLYLQMNSLKTEDTAVYYCRYVHYGAYYGVDAWGQGTTVTVSS
VL: DIVMTQSPLSLPVTPGEPASISCRSSQSLVHSNRNTYLHWYQQKPGQAPRLLIYKVSNRQSGVPDRFSGSGSGTDFTLKISRVEAEDVGVYYCGQGTQVPYTFGQGTKLEIK
notes: one-arm format as m2
B17: GLS3000 F55K (antibody, name in Kabat numbering, V domains shown)
VH: QVQLVESGGGVVQPGRSLRLSCAASGFTFSNAWMHWVRQAPGKGLEWVAQIKAKSNNYATYYAESVKGRFTISRDDSKNSLYLQMNSLKTEDTAVYYCRYVHYGAYYGVDAWGQGTTVTVSS
VL: DIVMTQSPLSLPVTPGEPASISCRSSQSLVHSNRNTYLHWYQQKPGQAPRLLIYKVSNRKSGVPDRFSGSGSGTDFTLKISRVEAEDVGVYYCGQGTQVPYTFGQGTKLEIK
notes: one-arm format as m2
B18: GLS3000 F55R (antibody, name in Kabat numbering, V domains shown)
VH: QVQLVESGGGVVQPGRSLRLSCAASGFTFSNAWMHWVRQAPGKGLEWVAQIKAKSNNYATYYAESVKGRFTISRDDSKNSLYLQMNSLKTEDTAVYYCRYVHYGAYYGVDAWGQGTTVTVSS
VL: DIVMTQSPLSLPVTPGEPASISCRSSQSLVHSNRNTYLHWYQQKPGQAPRLLIYKVSNRRSGVPDRFSGSGSGTDFTLKISRVEAEDVGVYYCGQGTQVPYTFGQGTKLEIK
notes: one-arm format as m2
B19: GLS3000 F55D (antibody, name in Kabat numbering, V domains shown)
VH: QVQLVESGGGVVQPGRSLRLSCAASGFTFSNAWMHWVRQAPGKGLEWVAQIKAKSNNYATYYAESVKGRFTISRDDSKNSLYLQMNSLKTEDTAVYYCRYVHYGAYYGVDAWGQGTTVTVSS
VL: DIVMTQSPLSLPVTPGEPASISCRSSQSLVHSNRNTYLHWYQQKPGQAPRLLIYKVSNRDSGVPDRFSGSGSGTDFTLKISRVEAEDVGVYYCGQGTQVPYTFGQGTKLEIK
notes: one-arm format as m2
B20: GLS3000 F55A (antibody, name in Kabat numbering, V domains shown)
VH: QVQLVESGGGVVQPGRSLRLSCAASGFTFSNAWMHWVRQAPGKGLEWVAQIKAKSNNYATYYAESVKGRFTISRDDSKNSLYLQMNSLKTEDTAVYYCRYVHYGAYYGVDAWGQGTTVTVSS
VL: DIVMTQSPLSLPVTPGEPASISCRSSQSLVHSNRNTYLHWYQQKPGQAPRLLIYKVSNRASGVPDRFSGSGSGTDFTLKISRVEAEDVGVYYCGQGTQVPYTFGQGTKLEIK
notes: one-arm format as m2
B21: GLS3000 F55M (antibody, name in Kabat numbering, V domains shown)
VH: QVQLVESGGGVVQPGRSLRLSCAASGFTFSNAWMHWVRQAPGKGLEWVAQIKAKSNNYATYYAESVKGRFTISRDDSKNSLYLQMNSLKTEDTAVYYCRYVHYGAYYGVDAWGQGTTVTVSS
VL: DIVMTQSPLSLPVTPGEPASISCRSSQSLVHSNRNTYLHWYQQKPGQAPRLLIYKVSNRMSGVPDRFSGSGSGTDFTLKISRVEAEDVGVYYCGQGTQVPYTFGQGTKLEIK
notes: one-arm format as m2

Each binder was assayed against CD3ε homodimer protein (human, UniProt P07766 23-126, limits assumed) (assay: SPR, immobilized CD3ε homodimer;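 note: biacore T200 surface plasmon resonance at 25 °C, antibody variants flowed as analytes over amine-coupled CD3ε homodimer on a CM4 chip, variant binding amount divided by that of GLS3000 antibody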).
Sequence of CD3ε homodimer protein (P07766 23-126 limits assumed): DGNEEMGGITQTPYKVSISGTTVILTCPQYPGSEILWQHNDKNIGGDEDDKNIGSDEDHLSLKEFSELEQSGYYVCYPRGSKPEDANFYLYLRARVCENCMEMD

| Binder | ratio of amounts bound (vs GLS3000) |
| --- | --- |
| B1 | 1.03 |
| B2 | 0.71 |
| B3 | 0.98 |
| B4 | 1.31 |
| B5 | 0.33 |
| B6 | 0.76 |
| B7 | 0.94 |
| B8 | 0.92 |
| B9 | 0.69 |
| B10 | 0.41 |
| B11 | 0.72 |
| B12 | 1.16 |
| B13 | 0.82 |
| B14 | 0.69 |
| B15 | 1.13 |
| B16 | 0.91 |
| B17 | 1.33 |
| B18 | 1.31 |
| B19 | 0.65 |
| B20 | 1.13 |
| B21 | 0.8 |
